The values below come from PMC3637846 (Nature, 2013).

In experiment [1] the target is heterologous T/F Env C.1086 (HIV-1 subtype C, isolate 1086 (T/F), UniProt C6G099, strain). As to the kind of experiment: ELISA. (In general: ELISA stands for enzyme-linked immunosorbent assay.)
The target in experiment [2] is CH505 transmitted/founder (T/F) Env gp140 (HIV-1 subtype C, CH505 (703010505) …, strain). As to the kind of experiment: SPR. Background: Surface plasmon resonance follows binding to a sensor surface in real time, without labels.

Numbering of substitutions follows the chain as printed.

B1: CH103 unmutated common ancestor (UCA) mAb (antibody, V domains shown)
VH: QVQLQESGPGLVKPSETLSLTCTVSGGSISSYYWSWIRQPPGKGLEWIGYIYYSGSTNYNPSLKSRVTISVDTSKNQFSLKLSSVTAADTAVYYCASLPRGQLVNAYFDYWGQGTLVTVSS
VL: not shown
For the molecule B1, the binding result in experiment [1] is reported as “no binding”.

B2: inferred intermediate antibody I1 (antibody, V domains shown)
V domain 1: QVQLQESGPGVVKSSETLSLTCTVSGGSMGGTYWSWLRLSPGKGLEWIGYIFHTGHTNYSPSLKGRVSISVDTSEDQFSLRLRSVTAADTAVYFCASLPRGQLVNAYFRNWGRGTLVSVTA
V domain 2: SYELTQPPSVSVSPGQTATITCSGDKVASKNVCWYQVKPGQSPEVVMYENYKRPSGIPDRFSGSKSGSTATLTIRGTQATDEADYYCQVWDSFSTFVFGSGTQVTV
Take B2: the binding result in experiment [2] is on record as “binds”.

B3: CH103 (full-length IgG1 recombinant mAb) (antibody, V domains shown)
V domain 1: B2 V domain 1 with H56E, T115S
V domain 2: SYELTQPPSVSVSPGQTATITCSGASTNVCWYQVKPGQSPEVVIFENYKRPSGIPDRFSGSKSGSTATLTIRGTQAIDEADYYCQVWDSFSTFVFGSGTQVTV
Turning to B3, the binding result in experiment [2] is recorded as “binds”.

B4: CH104 (full-length IgG1 recombinant mAb) (antibody, V domains shown)
V domain 1: B2 V domain 1 with S60N, K64E
V domain 2: B2 V domain 2 with P54A
With B4, in experiment [2], the binding result is “binds”.
